Assay results: US20240252732A1 (IMMUNICOM, published 2024)

Legend:
[1] = molecular target: T1, soluble TNF receptor 2 (sTNF-R2) (human, UniProt P20333 23-257); experiment: equilibrium KD; method not stated
T1 construct: extracellular domain
T1 sequence (looked up): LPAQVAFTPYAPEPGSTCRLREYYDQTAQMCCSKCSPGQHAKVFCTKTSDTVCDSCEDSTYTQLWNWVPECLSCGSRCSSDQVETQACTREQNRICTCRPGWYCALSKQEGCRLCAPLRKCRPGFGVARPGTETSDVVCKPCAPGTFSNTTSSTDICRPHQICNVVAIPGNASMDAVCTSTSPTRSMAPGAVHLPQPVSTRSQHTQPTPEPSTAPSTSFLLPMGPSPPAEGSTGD

[2] = molecular target: T2, soluble TNF receptor 1 (sTNF-R1) (human, UniProt P19438 30-211); experiment: equilibrium KD; method not stated
T2 construct: extracellular domain
T2 sequence (looked up): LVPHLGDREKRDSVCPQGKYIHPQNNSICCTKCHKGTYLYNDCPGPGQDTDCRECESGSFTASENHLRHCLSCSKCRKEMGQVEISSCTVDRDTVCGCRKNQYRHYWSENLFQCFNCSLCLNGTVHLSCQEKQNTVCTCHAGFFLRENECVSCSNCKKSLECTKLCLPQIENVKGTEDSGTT

Kd [1]: 0.012 µM | Kd [2]: 0.1 µM
B1: SEQ11 modified single chain TNF (scTNF) (ligand)
chain: THHHHHHHHHHAGGAENLYFQGSASSSSRTPSDKPVAHVVANPQAEGQLQWVNRRANALLANGVELRDNQLVVPSEGLYLIYSQVLFKGQGCPSTHVLLTHTISRIAVSYQTKVNLLSAIKSPCQRETPEGAEAKPWYEPIYLGGVFQLEKGDRLSAEINRPDYLDFDDDGQVYFGIIALGGGSGGGSGGGSGGGSSSRTPSDKPVAHVVANPQAEGQLQWVNRRANALLANGVELRDNQLVVPSEGLYLIYSQVLFKGQGCPSTHVLLTHTISRIAVSYQTKVNLLSAIKSPCQRETPEGAEAKPWYEPIYLGGVFQLEKGDRLSAEINRPDYLDFDDDGQVYFGIIALGGGSGGGSGGGSGGGSSSRTPSDKPVAHVVANPQAEGQLQWVNRRANALLANGVELRDNQLVVPSEGLYLIYSQVLFKGQGCPSTHVLLTHTISRIAVSYQTKVNLLSAIKSPCQRETPEGAEAKPWYEPIYLGGVFQLEKGDRLSAEINRPDYLDFDDDGQVYFGIIAL
notes: also called TNF variant trimer
